Consider 1 substance from article PMC9468113.

The target of this assay is MST-Red-labeled human MIF (human) (UniProt P14174). Briefly: MST; Monolith NT.115, 25 °C; MST-Red-MIF at fixed concentration (312 nM with CXCL4L1, 456 nM with CXCL4) with serial dilutions of the chemokine; 10 mM Tris-HCl, pH 8.0, 0.01% BSA; both in solution.
Sequence of MST-Red-labeled human MIF (human) (P14174 2-115): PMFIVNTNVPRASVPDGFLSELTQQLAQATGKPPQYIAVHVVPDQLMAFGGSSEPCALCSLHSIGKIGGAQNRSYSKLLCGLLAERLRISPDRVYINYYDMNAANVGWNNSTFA

Broadly, the Kd is the equilibrium constant for the complex coming apart. “recombinant human CXCL4 (PF4), Peprotech (from UniProt P02776 32-101) (natural protein)” yielded a Kd of 2000 nM.
